The source of these data is patent US20230086603A1 (BOLT BIOTHERAPEUTICS, published 2023).

Residue numbers refer to the chain shown, from its start.

B1: PD-L1 binding agent 10 (antibody, V domains shown)
VH: QVQLVQSGAEVKKPGASVKVSCKASGYTFTGYYMHWVRQAPGQGLEWIGWMSLNSGLTGYAQKFQGRVTMTRDTSTSTVYMELSSLRSEDTAVYYCARDRGWFDPWGQGTLVTVSS
VL: DIQMTQSPSSLSASVGDRVTITCRASQSISSWLAWYQQKPGKAPKLLIYAASTLESGVPSRFSGSGSGTDFTLTISSLQPEDFATYYCQQSYTTPYSFGGGTKVEIK
B2: PD-L1 binding agent 21 (antibody, V domains shown)
VH: QVQLVQSGAEVKKPGASVKVSCKASGYTFTSHYMHWVRQAPGQGLEWMGWMNPNSGHTGNAQKFQGRVTMTRDTSTSTVYMELSSLRSEDTAVYYCARGNWVDAFDIWGQGTMVTVSS
VL: B1 VL with S28G, S30R, S31N, W32D, E55Q, T93S, Y96L, S97T
B3: 34 (antibody, V domains shown)
VH: QVQLVQSGAEVKKPGASVKVSCKASGYTFTRHLLHWVRQAPGQGLEWMGWISPQHGVRNYAHKFQGRVTMTRDTSTSTVYMELSSLRSEDTAVYYCARESVEGYFDLWGRGTLVTVSS
VL: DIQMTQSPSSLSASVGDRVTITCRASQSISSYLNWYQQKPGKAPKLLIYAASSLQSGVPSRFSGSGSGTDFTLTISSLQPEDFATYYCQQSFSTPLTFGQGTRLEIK
B4: 31 (antibody, V domains shown)
VH: QVQLVQSGAEVKKPGASVKVSCKASGYTFTSYYMHWVRQAPGQGLEWMGWLTPSTGHAGYAQKFQGRVTMTRDTSTSTVYMELSSLRSEDTAVYYCAREGYGGNYGNWGQGTLVTVSS
VL: DIQMTQSPSSLSASVGDRVTITCRASQSISPWLAWYQQKPGKAPKLLIYDASNLETGVPSRFSGSGSGTDFTLTISSLQPEDFATYYCQQTYSTPITFGQGTRLEIK
B5: 69 (antibody, V domains shown)
VH: QVQLVQSGAEVKKPGASVKVSCKASGYTFTSYYMHWVRQAPGQGLEWMGWINPNSGNTGYAQKFQGRVTMTRDTSTSTVYMELSSLRSEDTAVYYCARDDWGGDWFDYWGQGTLVTVSS
VL: B4 VL with R24Q, S28D, P31N, W32H, A34N, D50G, E55Q, T56R, T91S
B6: 33 (antibody, V domains shown)
VH: QVQLVQSGAEVKKPGASVKVSCKASGYTFTRHFIHWVRQAPGQGLEWMGWIDPNSGVTSSAQKFQGRVTMTRDTSTSTVYMELSSLRSEDTAVYYCARELSRWGFDYWGPGTMVTVSS
VL: EIVMTQSPATLSVSPGERATLSCRASQTVSSNYLAWYQQKPGQAPRLLIYGASTRASGIPARFSGSGSGTEFTLTISSLQSEDFAVYYCQQYYTTPLTFGGGTKVEIK
B7: 6 (antibody, V domains shown)
VH: QVQLVQSGAEVKKPGASVKVSCKASGYTFTSYYIHWVRQAPGQGLEWMGWMKPSSGTTGYAQKFQGRVTMTRDTSTSTVYMELSSLRSEDTAVYYCAREQWLVNDAFDIWGQGTLVTVSS
VL: B6 VL with T28S, S30D, S31R, L34V, A35T, S57T, Y92S, L97Y, G101Q
B8: 66 (antibody, V domains shown)
VH: QVQLVQSGAEVKKPGASVKVSCKASGYTFSSYYMHWVRQAPGQGLEWMGWITTNSGITGYAQKFQGRVTMTRDTSTSTVYMELSSLRSEDTAVYYCAREGYSSGLDYWGQGTLVTVSS
VL: not shown
B9: 29 (antibody, V domains shown)
VH: QVQLVQSGAEVKKPGASVKVSCKASGYTFSNSYMHWVRQAPGQGLEWMGWMDPSSGYTGSAHKFQGRVTMTRDTSTSTVYMELSSLRSEDTAVYYCAEDSGGAFDIWGQGTMVTVSS
VL: DIQMTQSPSSLSASVGDRVTITCRASEHIANWLAWYQQKPGKAPKLLIYGVSSLESGVPSRFSGSGSGTDFTLTISSLQPEDFATYYCQQSYSTPYTFGQGTKLEIK
B10: 37 (antibody, V domains shown)
VH: QVQLVQSGAEVKKPGASVKVSCKASGYTFTSYGINWVRQAPGQGLEWMGWMNPNSGNTGYAQKFQGRVTMTRDTSTSTVYMELSSLRSEDTAVYYCARGSFPLVFTIFGVGDVWGQGTMVTVSS
VL: DIQMTQSPSSLSASVGDRVTITCRSSQGIRNDLSWYQQKPGKAPKLLIYLASNSHSGVPSRFSGSGSGTDFTLTISSLQPEDFATYYCLQHNSYPLTFGGGTKVEIK
B11: 5 (antibody, V domains shown)
VH: QVQLVQSGAEVKKPGASVKVSCKASGYTFNRFMHWVRQAPGQGLEWMGWMSLNSGLTGYAQKFQGRVTMTRDTSTSTVYMELSSLRSEDTAVYYCTRGTYNDAFDIWGQGTLVTVSS
VL: B1 VL with S28T, S31N, W32Y, A34N, T53S, E55Q, Y96I, S97T
B12: 70 (antibody, V domains shown)
VH: QVQLVQSGAEVKKPGASVKVSCKASGYTFTDHYLHWVRQAPGQGLEWMGWINPNIGNTGYAQKFQGRVTMTRDTSTSTVYMELSSLRSEDTAVYYCAREPLQLGGFDYWGQGTLVTVSS
VL: B9 VL with H28S, A30S, N31S, G50A, V51A, E55Q, Y96L
B13: 4 (antibody, V domains shown)
VH: QVQLVQSGAEVKKPGASVKVSCKASGYTFTSHHMHWVRQAPGQGLEWMGWVSPSHGLTGYAQKFQGRVTMTRDTSTSTVYMELSSLRSEDTAVYYCARDNWNVHDAFDIWGQGTLVTVSS
VL: B1 VL with S28G, W32Y, A50G, T53N, E55Q, T93S, Y96L, S97T
B14: 68 (antibody, V domains shown)
VH: QVQLVQSGAEVKKPGASVKVSCKASGYTFTGYYMHWVRQAPGQGLEWMGWINPNSGTTGYAQNFQGRVTMTRDTSTSTVYMELSSLRSEDTAVYYCAREGFGPNAFDIWGQGTTVTVSS
VL: B1 VL with T53N, E55Q, S91Y, T93S, S97T, G100Q
B15: 32 (antibody, V domains shown)
VH: B2 VH with H32Y, N60Y, G99E, N100D, W101F, V102Y, D103G, A104D, I107Y, M113L
VL: B1 VL with S28G, S31R, W32Y, E55Q, T93S, Y96L, S97T, G100Q
B16: 35 (antibody, V domains shown)
VH: QVQLVQSGAEVKKPGASVKVSCKASGYPFSSYYMHWVRQAPGQGLEWMGMINPSGGSTSYAQKFQGRVTMTRDTSTSTVYMELSSLRSEDTAVYYCARDIFPTMIAGGGFDLWGRGTLVTVSS
VL: B4 VL with P31S, T91S, I96P, R103K, L104V
B17: 30 (antibody, V domains shown)
VH: QVQLVQSGAEVKKPGASVKVSCKASGYPFSTYYMHWVRQAPGQGLEWMGWMNPHSADTGYAEKFQGRVTMTRDTSTSTVYMELSSLRSEDTAVYYCAREVFEGGMDVWGQGTTVTVSS
VL: B1 VL with I29V, S30G, L33V, A50P, E55Q, T93S, Y96L, S97T
B18: 67 (antibody, V domains shown)
VH: QVQLVQSGAEVKKPGASVKVSCKASGYTFSTHYMHWVRQAPGQGLEWMGWINPNSGHAGSAQKFQGRVTMTRDTSTSTVYMELSSLRSEDTAVYYCARESIAVAGYDYWGQGTLVTVSS
VL: B1 VL with E55Q, S56R, T93S, S97T, G100Q, V104L

PD-L1 on CHO-K1/PD-L1/alphaAPC stimulator cells, sequence (Q9NZQ7 19-290 limits assumed): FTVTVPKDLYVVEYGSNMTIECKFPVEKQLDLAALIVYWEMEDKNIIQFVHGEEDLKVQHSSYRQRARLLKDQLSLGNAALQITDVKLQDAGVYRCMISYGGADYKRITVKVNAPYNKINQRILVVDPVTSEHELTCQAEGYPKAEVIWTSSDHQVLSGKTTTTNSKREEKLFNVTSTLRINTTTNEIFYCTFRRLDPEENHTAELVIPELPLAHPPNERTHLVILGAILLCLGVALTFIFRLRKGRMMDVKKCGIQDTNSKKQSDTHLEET

One assay addresses PD-L1 on CHO-K1/PD-L1/alphaAPC stimulator cells (UniProt Q9NZQ7 19-290, limits assumed). The experiment in a line: cell-based or functional assay.
B1: the “EC50 (nM), PD-L1/PD-1 blockade, luciferase reporter cells” value was 2.02 nM and the “EC50 (ng/ml), PD-L1/PD-1 blockade, luciferase reporter cells” value came out at 291 ng/mL. Consider B2, for which the “EC50 (nM), PD-L1/PD-1 blockade, luciferase reporter cells” value amounted to 0.9 nM and the “EC50 (ng/ml), PD-L1/PD-1 blockade, luciferase reporter cells” value was 129 ng/mL.

A further assay deals with T1, human PD-L1 (hPD-L1) (human, UniProt Q9NZQ7 19-290).
T1 construct: Endogenous hPD-L1 on JIMT1 (JIMT-1) cells; also called programmed death-ligand 1; CD274
T1 sequence (Q9NZQ7 19-290 limits assumed): as above
Briefly: flow cytometry on JIMT-1 cells expressing endogenous human PD-L1; anti-human IgG Fc secondary; geometric MFI. On the procedure:
Binding of the binding agents of an embodiment of the invention to human PD-L1 (hPD-L1) on cell surfaces was assessed by incubating the binding agents with JIMT1 cells that express endogenous hPD-L1. Briefly, the binding agents were diluted serially in FACS buffer (PBS+1% FBS+5 mM EDTA, pH 7.4) at 4° C. Diluted binding agents were applied to JIMT1 cells (˜1×10⁵-2×10⁵ per well) and incubated at 4° C. […] After unbound secondary antibody was washed out, cells were resuspended in FACS buffer plus 2% formaldehyde and analyzed by flow cytometry. The intensity of fluorescence, expressed as geometric mean fluorescence intensity, was used to determine anti-PDL1 binding agent binding to hPD-L1 on cell surface.
On the technique in general: A flow cytometer gives signals particle by particle.
Turning to B3, the binding result is given as “binds”. With B4, the binding result was “binds”. In the case of B5, the binding result is “binds”. On to B6, for which the binding result is given as “binds”. Still for that read-out and setting: to B7 belongs “binds”. B8: the binding result is “binds”. As to B9, the binding result is “binds”. In the case of B10, the binding result was “binds”. Regarding B11, the binding result is listed as “binds”.

With B12, the binding result is listed as “binds”. As to B13, the binding result is “binds”. The same measure, in the same setting: the result for B14 reads “binds”; that for B15, “binds”; that for B16, “binds”. Turning to B17, the binding result is on record as “binds”. With B18, the binding result is listed as “binds”.
